For orientation: stoichiometry N means the number of molecules, sites or subunits per partner or assembly.

For this test, the target named is MBP-FhtR (faecalis heme transport regulator fused to the maltose binding protein) (Enterococcus faecalis OG1RF). Description: SEC; 40 uM apo- or holo- (hemin-complexed) MBP-FhtR in 100 ul loaded on Superdex 200 Increase 10/300 GL; 20 mM HEPES (pH 7), 300 mM NaCl; read at OD280 and OD410.

“MBP-FhtR (faecalis heme transport regulator fused to the maltose binding protein) (natural protein)” registered a stoichiometry N of 2.

The values above are taken from article PMC7858072.
